This test concerns the target T1, Bax-ω GAL4-transactivation domain hybrid (plasmid Bax-ω-GAL424) (yeast; human).
T1 chain: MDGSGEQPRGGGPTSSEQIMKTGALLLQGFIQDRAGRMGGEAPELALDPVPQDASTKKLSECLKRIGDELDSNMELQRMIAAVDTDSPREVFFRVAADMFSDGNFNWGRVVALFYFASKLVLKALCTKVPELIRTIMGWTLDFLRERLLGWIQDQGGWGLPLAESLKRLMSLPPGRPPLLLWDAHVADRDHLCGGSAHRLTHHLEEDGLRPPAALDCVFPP
Briefly: yeast two-hybrid: β-galactosidase filter assay (SFY526) and growth in the absence of histidine (HF7C); (-) means white signal / no growth.

B1: Bax-ω GAL4-DNA binding domain hybrid (plasmid Bax-ω-pAS1) (other)
chain: T1 chain
With B1, the binding result is recorded as “no binding”.

These data come from patent US5770690, “Bax omega protein and methods” (Neurex Corporation, dated 1998).
